{
  "source": "patent US20170182124A1",
  "about": "“FGF21 Derivatives and Uses Thereof” (Novo Nordisk A/S, priority 2014, published 2017)",
  "molecules": {"B1": {"name": "S{Beta-180}-2-aminoethylsulfanyl-Ala[Gln121, Leu168, Cys180, des181]FGF21 (protein)", "chain": "AHPIPDSSPLLQFGGQVRQRYLYTDDAQQTEAHLEIREDGTVGGAADQSPESLLQLKALKPGVIQILGVKTSRFLCQRPDGALYGSLHFDPEACSFRELLLEDGYNVYQSEAHGLPLHLPGQKSPHRDPAPRGPARFLPLPGLPPALPEPPGILAPQPPDVGSSDPLSLVGPSQGRSPSYC", "modifications": "N-terminal Ala; cysteamine disulfide on Cys180"}, "B2": {"name": "S{Beta-180}-2-aminoethylsulfanyl-Ala[Gln121, Leu168, Cys180]FGF21 (protein)", "chain": "AHPIPDSSPLLQFGGQVRQRYLYTDDAQQTEAHLEIREDGTVGGAADQSPESLLQLKALKPGVIQILGVKTSRFLCQRPDGALYGSLHFDPEACSFRELLLEDGYNVYQSEAHGLPLHLPGQKSPHRDPAPRGPARFLPLPGLPPALPEPPGILAPQPPDVGSSDPLSLVGPSQGRSPSYCS", "modifications": "N-terminal Ala; cysteamine disulfide on Cys180"}, "B3": {"name": "S{Beta-176}-2-aminoethylsulfanyl-Ala[Gln121, Leu168, Cys176]FGF21 (protein)", "chain": "B2 chain with S177C, C181A", "modifications": "cysteamine-protected Cys176"}, "B4": {"name": "S{Beta-179}-2-aminoethylsulfanyl-Ala[Gln121, Leu168, Cys179]FGF21 (protein)", "chain": "B2 chain with Y180C, C181A", "modifications": "N-terminal Ala; cysteamine disulfide on Cys179"}, "B5": {"name": "S{Beta-178}-2-aminoethylsulfanyl-Ala[Gln121, Leu168, Cys178]FGF21 (protein)", "chain": "B2 chain with S179C, C181A", "modifications": "N-terminal Ala; cysteamine disulfide on Cys178"}, "B6": {"name": "S{Beta-181}-2-aminoethylsulfanyl-Ala[Gln121, Leu168, Cys181]FGF21 (protein)", "chain": "B2 chain with C181A, S182C", "modifications": "N-terminal Ala; cysteamine disulfide on Cys181"}},
  "key": {"[1]": {"molecular_target": "FGF receptor/BKL complex", "sequence (Q86Z14 whole entry, one chain of several)": "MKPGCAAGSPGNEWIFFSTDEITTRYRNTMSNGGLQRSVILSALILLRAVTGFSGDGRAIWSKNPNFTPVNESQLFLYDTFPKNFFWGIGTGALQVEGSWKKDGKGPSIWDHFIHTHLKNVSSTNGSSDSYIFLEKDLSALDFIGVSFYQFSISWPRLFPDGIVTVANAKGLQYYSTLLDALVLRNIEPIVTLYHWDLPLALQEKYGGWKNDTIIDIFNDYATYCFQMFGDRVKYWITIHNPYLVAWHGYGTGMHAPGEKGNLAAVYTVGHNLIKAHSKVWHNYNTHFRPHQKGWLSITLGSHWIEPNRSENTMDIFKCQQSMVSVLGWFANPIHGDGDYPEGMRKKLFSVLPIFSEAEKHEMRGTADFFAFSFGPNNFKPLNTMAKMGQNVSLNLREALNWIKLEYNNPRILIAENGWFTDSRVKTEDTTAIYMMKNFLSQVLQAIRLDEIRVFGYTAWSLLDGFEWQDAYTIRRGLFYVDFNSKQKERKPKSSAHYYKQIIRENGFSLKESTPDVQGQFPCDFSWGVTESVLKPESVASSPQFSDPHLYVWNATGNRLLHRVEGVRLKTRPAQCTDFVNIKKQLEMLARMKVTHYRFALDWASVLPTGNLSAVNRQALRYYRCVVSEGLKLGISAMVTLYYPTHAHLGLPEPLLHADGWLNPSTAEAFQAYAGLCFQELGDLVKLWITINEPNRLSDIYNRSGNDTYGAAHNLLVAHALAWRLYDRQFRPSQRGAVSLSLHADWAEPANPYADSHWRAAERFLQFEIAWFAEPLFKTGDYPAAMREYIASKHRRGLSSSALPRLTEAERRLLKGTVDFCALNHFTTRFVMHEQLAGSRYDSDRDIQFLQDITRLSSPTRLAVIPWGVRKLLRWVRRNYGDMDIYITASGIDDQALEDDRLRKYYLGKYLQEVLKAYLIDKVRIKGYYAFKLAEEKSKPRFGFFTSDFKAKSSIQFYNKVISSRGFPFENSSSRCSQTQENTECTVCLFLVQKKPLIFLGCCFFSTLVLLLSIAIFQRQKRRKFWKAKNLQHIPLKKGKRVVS", "experiment": "FGF receptor potency in an Erk phosphorylation assay in HEK293 overexpressing human BKL", "assay_type": "cell-based", "details": "for EC50: HEK293/BKL cells, pERK after 12 minutes", "experimental": "In order to test the binding of the FGF21 derivatives to albumin, the assay was performed in the absence of serum albumin as well as in the presence of human serum albumin (HSA) (0.1% final assay concentration). An increase in EC50 value (decrease in potency) in the presence of serum albumin for FGF21 derivatives would indicate binding to serum albumin and represents a method to predict a protracted pharmacokinetic profile of the test substance in animal models. MetFGF21 (SEQ ID NO:2) is included for reference.\nHEK293 cells endogenously express several FGF receptors, including FGFR1c, FGFR3c and FGFR4. These cells are unresponsive to FGF21 until transfected with the co-receptor beta-klotho (BKL). Activation of the FGF receptor/BKL complex leads to activation of the MAPK/ERK signalling pathway and phosphorylation of ERK. The level of phosphorylated ERK (pERK) at a given time point increases with increasing concentrations of FGF21. As described below the level of pERK is measured after 12 minutes of stimulation with a range of FGF21 analogue concentrations.\nThe HEK293/beta-klotho cells are seeded with 30.000 cells/well in 96 well plates in DMEM (BioWhittaker #BE12-604F/U1), supplemented with 10% FCS (Gibco #16140-071), 1% penicillin/streptomycin (Gibco #15140), 100 µg/ml Hygromycin B, (Calbiochem, # 400052). Two days later and 2 hours before addition of compound the cell medium is exchanged with 100 ∞l basal medium (DMEM (BioWhittaker #BE12-604F/U1)). The FGF21 analogues are diluted in assay medium (DMEM (BioWhittaker #BE12-604F/U1) supplemented with 0.02% Tween20), warmed to 37° C., added to the cells (100 μl) and incubated at 37° C. for 12 minutes. The FGF21 derivatives were also tested in the presence of 0.1% HSA (Sigma—A1887). All medium is quickly removed and 50 μl lysis buffer is added pr. well. The plate is shaken for 5 minutes and the lysate is ready for measurement of pERK. pERK is measured in 384 well plates with the AlphaScreen SureFire kit (PerkinElmer #TGRES10K). This kit is based on ERK and pERK specific antibodies coupled to donor and acceptor beads. The presence of pERK will bring acceptor and donor beads in close proximity and a signal is generated that is read on EnVision. The data are analysed using GraphPad Prism and the potency of the FGF21 proteins is described as absolute EC50 value."}, "[2]": {"molecular_target": "3T3-L1 adipocytes (Mus musculus, UniProt P16092+Q99N32)", "sequence (Q99N32 whole entry)": "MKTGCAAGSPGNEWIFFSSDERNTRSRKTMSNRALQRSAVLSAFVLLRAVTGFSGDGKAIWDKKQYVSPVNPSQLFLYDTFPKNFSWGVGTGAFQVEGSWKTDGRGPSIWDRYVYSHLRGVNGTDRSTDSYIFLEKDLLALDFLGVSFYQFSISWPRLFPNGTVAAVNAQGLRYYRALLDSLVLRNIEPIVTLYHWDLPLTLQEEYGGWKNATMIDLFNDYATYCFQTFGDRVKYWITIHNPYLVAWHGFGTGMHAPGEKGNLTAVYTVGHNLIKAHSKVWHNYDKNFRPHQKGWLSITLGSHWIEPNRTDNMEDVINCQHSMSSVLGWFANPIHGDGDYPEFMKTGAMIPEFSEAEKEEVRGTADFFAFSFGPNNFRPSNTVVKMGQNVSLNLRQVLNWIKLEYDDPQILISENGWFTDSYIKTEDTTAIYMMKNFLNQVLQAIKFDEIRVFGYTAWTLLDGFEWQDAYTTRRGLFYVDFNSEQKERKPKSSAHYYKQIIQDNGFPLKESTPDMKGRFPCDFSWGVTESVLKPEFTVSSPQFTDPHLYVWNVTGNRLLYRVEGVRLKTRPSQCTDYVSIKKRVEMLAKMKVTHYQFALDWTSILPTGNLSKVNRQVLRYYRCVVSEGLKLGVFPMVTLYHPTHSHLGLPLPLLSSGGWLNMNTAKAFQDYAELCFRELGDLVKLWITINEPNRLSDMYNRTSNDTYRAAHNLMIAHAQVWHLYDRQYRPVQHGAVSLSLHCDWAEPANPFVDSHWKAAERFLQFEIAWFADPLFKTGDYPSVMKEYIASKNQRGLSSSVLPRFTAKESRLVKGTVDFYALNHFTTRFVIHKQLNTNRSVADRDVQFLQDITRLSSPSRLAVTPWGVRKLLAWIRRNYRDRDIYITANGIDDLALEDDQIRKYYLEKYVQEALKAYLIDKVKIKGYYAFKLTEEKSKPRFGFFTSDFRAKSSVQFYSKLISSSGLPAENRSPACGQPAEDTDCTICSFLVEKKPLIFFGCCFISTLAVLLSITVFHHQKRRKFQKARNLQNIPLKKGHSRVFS", "sequence (P16092 22-822)": "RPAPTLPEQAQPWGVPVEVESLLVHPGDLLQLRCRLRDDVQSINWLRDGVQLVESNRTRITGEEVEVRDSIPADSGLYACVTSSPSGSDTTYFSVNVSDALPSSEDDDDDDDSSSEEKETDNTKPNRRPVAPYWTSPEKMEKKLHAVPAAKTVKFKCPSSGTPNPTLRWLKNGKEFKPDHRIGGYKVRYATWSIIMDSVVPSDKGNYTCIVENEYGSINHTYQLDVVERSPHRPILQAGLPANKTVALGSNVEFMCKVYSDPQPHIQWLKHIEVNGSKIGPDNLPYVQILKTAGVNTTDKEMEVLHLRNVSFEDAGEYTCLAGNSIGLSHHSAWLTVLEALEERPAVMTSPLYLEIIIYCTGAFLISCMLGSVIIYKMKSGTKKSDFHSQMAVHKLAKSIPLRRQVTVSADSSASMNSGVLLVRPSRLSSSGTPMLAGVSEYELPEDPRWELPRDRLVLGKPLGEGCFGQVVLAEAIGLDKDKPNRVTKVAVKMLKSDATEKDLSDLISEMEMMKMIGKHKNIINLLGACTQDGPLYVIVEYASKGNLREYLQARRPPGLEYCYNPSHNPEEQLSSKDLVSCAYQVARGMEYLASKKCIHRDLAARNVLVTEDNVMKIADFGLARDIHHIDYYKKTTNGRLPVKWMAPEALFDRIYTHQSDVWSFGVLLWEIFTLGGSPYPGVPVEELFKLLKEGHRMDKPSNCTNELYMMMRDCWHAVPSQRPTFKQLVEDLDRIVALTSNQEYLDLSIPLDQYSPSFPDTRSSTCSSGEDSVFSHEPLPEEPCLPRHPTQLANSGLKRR", "experiment": "Glucose uptake in 3T3-L1 adipocytes", "assay_type": "cell-based", "details": "stimulated 20 hours, 3H-deoxy-glucose", "experimental": "The C-terminal modified analogues were tested for their ability to increase glucose uptake in 3T3-L1 mouse adipocytes. The following assay was used for determining the biological activity, or potency, of FGF21 analogues and derivatives of the invention.\nThe in vitro potency may also be determined in an assay with mouse 3T3-L1 adipocytes by testing the FGF21 analogues and derivatives for their ability to increase glucose uptake into adipocytes. Differentiated 3T3-L1 adipocytes endogenously express FGFR1c and BKL. The 3T3-L1 cells are unresponsive to FGF21 until after differentiated as differentiation lead to expression of the co-receptor BKL. Activation of the FGFR1 receptor/BKL complex increase the expression of glucose transporter 1 (GLUT1) and therefore FGF21 agonists will lead to an increased amount of glucose taken into the adipocytes in a dose responsive manner.\nMouse 3T3-L1 fibroblasts (e.g. available from ATCC, catalogue no. CL-173) were maintained in basal medium (DMEM (4500 mg/I Glucose) with 10% Fetal Bovine Serum (FBS) and 1% Penicillin/Streptomycin). The cells are not allowed to reach confluence and should be passed (transferred to new vials) before reaching approx. 60% of confluency (by visual inspection).\nFor the glucose uptake assay, cells were 15.000 cells/well in a 96 well plate (BIOCOAT), and when they reached confluency (high density, with a view to have differentiated adipose cells made), the medium was changed from basal medium to basal medium containing Troglitazone, IBMX, Dexamethasone (commercially available from, e.g., Sigma) and human insulin (commercially available from, e.g., Novo Nordisk A/S).\nThe cells were used 7-9, days after initiation of differentiation. The cells were stimulated with increasing concentrations (0-300 nM) of the FGF21 analogues or derivatives of the invention for 20 hours in basal medium. Before addition of 3H-deoxy-glucose (in what follows: the tracer) the cells were washed in warm (approximately 37° C.) assay buffer (PBS with 1 mM MgCl2 and 2 mM CaCl2), HEPES and 0.1% Human serum albumin) and the cells were incubated with the tracer for 1 hour. This incubation was terminated by washing twice in ice cold assay buffer. The cells were lysed with Triton X-100 and lysates transferred to a 96 wells plate, microscint-40 (commercially available from, e.g., Perkin Elmer) was added and amount of tracer counted in a TOP-counter (e.g. a Packard top-counter from Perkin Elmer). The EC50 and Emax of the FGF21 compound in question were calculated. The results which are shown in tables 4-5 below indicate the EC50 (potency) and Emax (efficacy) of the FGF21 analogues and derivatives, respectively."}},
  "note": "Numbering of substitutions follows the chain as printed. Like-named read-outs stand apart in the source and are kept apart here.",
  "data": [
    {"molecule": "S{Beta-178}-[2-[2-[[2-[2-[2-[[2-[2-[2-[[(4S)-4-carboxy-4-(15-carboxypentadecanoyl-amino)butanoyl]amino]ethoxy]ethoxy]acetyl]amino]ethoxy]ethoxy]acetyl]amino]-ethylamino]-2-oxoethyl]-Ala[Gln121,Leu168,Cys178]FGF21 [Compound 11]", "values": [
      {"measurement": "EC50", "setting": "[1]; absence of HSA, read-out: EC50", "result": 167, "unit": "nM"},
      {"measurement": "EC50", "setting": "[1]; presence of 0.1% HSA, read-out: EC50 (0.1% HSA)", "result": 137, "unit": "nM"},
      {"measurement": "EC50", "setting": "[2]", "result": 186, "unit": "nM"},
      {"measurement": "Glucose uptake Emax", "setting": "[2]", "result": 59, "unit": "%"}
    ]},
    {"molecule": "B1", "values": [
      {"measurement": "EC50", "setting": "[1]; absence of HSA, read-out: EC50", "result": 20, "unit": "nM"},
      {"measurement": "EC50", "setting": "[2]", "result": 73, "unit": "nM"},
      {"measurement": "Glucose uptake Emax", "setting": "[2]", "result": 72, "unit": "%"}
    ]},
    {"molecule": "B2", "values": [
      {"measurement": "EC50", "setting": "[1]; absence of HSA, read-out: EC50", "result": 2.3, "unit": "nM"},
      {"measurement": "potency in HEK293/BKL cells compared with MetFGF21 or corresponding analogue (in words)", "setting": "[1]; absence of HSA", "result": "potency similar to both MetFGF21 and Compound 2"},
      {"measurement": "EC50", "setting": "[2]", "result": 2.6, "unit": "nM"},
      {"measurement": "Glucose uptake Emax", "setting": "[2]", "result": 102, "unit": "%"}
    ]},
    {"molecule": "B3", "values": [
      {"measurement": "EC50", "setting": "[1]; absence of HSA, read-out: EC50", "result": 227, "unit": "nM"},
      {"measurement": "EC50", "setting": "[2]", "result": 73, "unit": "nM"},
      {"measurement": "Glucose uptake Emax", "setting": "[2]", "result": 84, "unit": "%"}
    ]},
    {"molecule": "B4", "values": [
      {"measurement": "EC50", "setting": "[1]; absence of HSA, read-out: EC50", "result": 69, "unit": "nM"},
      {"measurement": "EC50", "setting": "[2]", "result": 25, "unit": "nM"},
      {"measurement": "Glucose uptake Emax", "setting": "[2]", "result": 77, "unit": "%"}
    ]},
    {"molecule": "B5", "values": [
      {"measurement": "EC50", "setting": "[1]; absence of HSA, read-out: EC50", "result": 105, "unit": "nM"},
      {"measurement": "EC50", "setting": "[2]", "result": 50, "unit": "nM"},
      {"measurement": "Glucose uptake Emax", "setting": "[2]", "result": 69, "unit": "%"}
    ]},
    {"molecule": "B6", "values": [
      {"measurement": "EC50", "setting": "[1]; absence of HSA, read-out: EC50", "result": 27, "unit": "nM"},
      {"measurement": "potency in HEK293/BKL cells compared with MetFGF21 or corresponding analogue (in words)", "setting": "[1]; absence of HSA", "result": "only slightly decreased as compared to MetFGF21"},
      {"measurement": "EC50", "setting": "[2]", "result": 5, "unit": "nM"},
      {"measurement": "Glucose uptake Emax", "setting": "[2]", "result": 74, "unit": "%"}
    ]}
  ]
}
